Experimental data taken from patent publication US20070042353A1, “HCV polymerase suitable for crystal structure analysis and method for using the enzyme” (Japan Tobacco Inc., priority 1999, published 2007).
Where no end group is shown, it is not given here.

Legend:
NS5B544 = biological target: T1, NS5B544 (Hepatitis C virus genotype 1b, UniProt P26663); assay: HCV polymerase-inhibitory activity of synthetic peptide, pre-incubated with NS5B544; assay type: biochemical, HCV-BK strain; conditions: final concentration of 30 μM; pre-incubated with NS5B544 at 25° C. for 30 minutes
T1 construct: residue 1 (Ser) of the NS5B, a C-terminal amino acid residue of X′ is any one of amino acid residues 531 (Lys) to 544 (Gln); made in house; host or cells: E. coli
Procedure: The reaction mixture with the composition mentioned below (30 μl) was reacted at 25° C. for 90 min. • Reaction mixture: the HCV polymerase obtained in Example 1 (1 μg/ml), the template RNA obtained in Example 5 (10 μg/ml), ATP (50 μM), GTP (50 μM), CTP (50 μM), UTP (2 μM), [5, 6-^3H] UTP (46 Ci/mmol (Amersham), 1.5 μCi), 20 mM Tris-HCl (pH 7.5), EDTA (1 mM), MgCl2 (5 mM), NaCl (50 mM), DTT (1 mM), BSA (0.01%).
The reaction was terminated by adding 10% trichloroacetic acid at 4° C. and 1% sodium diphosphate solution (150 μl) to the reaction mixture, and kept in ice for 15 min to precipitate the RNA. The RNA was trapped on a glass filter (Whatman, GF/C) by suction filtration. The filter was washed with a solution containing 1% trichloroacetic acid and 0.1% sodium diphosphate, then with 90% ethanol, and dried. A liquid scintillation cocktail (Packard) was added to the RNA synthesized by the enzyme reaction, and the radioactivity of the RNA was measured by a liquid scintillation counter.
Next, a synthetic peptide was prepared by a conventional method and its HCV polymerase-inhibitory activity was assessed. […] The synthetic peptide and NS5B544 were pre-incubated at 25° C. for 30 minutes, and the polymerase activity was measured in the same manner as in Example 5. […]

HCV polymerase = assay: Measurement of the HCV polymerase activity (3H-UTP incorporation into template RNA); assay type: biochemical, HCV-BK strain; conditions: radioactivity of the NS5B591 enzyme reaction as standard; polymerase 1 μg/ml, 25° C., 90 min
From the text: The DNA fragment (148 bp) containing polyU and 3′ X sequence was completely synthesized using synthetic primers designed based on the sequence of the 3′ untranslational region of the HCV genome, and cloned into plasmid pBluescript SK II (+) (Stratagene). The cDNA encoding the full length NS5B prepared in the same manner as in Example 1 was digested with restriction enzyme KpnI to obtain the cDNA fragment covers the region from the restriction enzyme cleavage site to the stop codon. This cDNA fragment was ligated to the upstream of 3′ untranslational region DNA of pBluescript SK II (+). The DNA insert of about 450 bp in total was used as a template for preparing the template RNA. The plasmid was cleaved just after 3′ X sequence, circulated, treated with phenol/chloroform, and purified by ethanol precipitation to recover the DNA.
Using the purified DNA as a template, utilizing the promoter in pBluescript SK II (+), RNA was synthesized by the run-off method using MEGAscript RNA synthesis kit (Ambion), and T7 RNA polymerase (at 37° C. for 3 hours). DNaseI was added thereto and further incubated for 1 hour, and the template DNA was decomposed and removed to obtain the crude RNA product. The crude product was treated with phenol/chloroform, and purified by ethanol precipitation to obtain the desired template RNA. After confirming the quality of the RNA by agarose gel electrophoresis, the RNA was stored at −80° C. The RNA is a template suitable for the highly sensitive measurement of the polymerase activity. […]
The reaction was terminated by adding 10% trichloroacetic acid at 4° C. and 1% sodium diphosphate solution (150 μl) to the reaction mixture, and kept in ice for 15 min to precipitate the RNA. […] A liquid scintillation cocktail (Packard) was added to the RNA synthesized by the enzyme reaction, and the radioactivity of the RNA was measured by a liquid scintillation counter.
The activity of the HCV polymerase was calculated from the value of radioactivity in the enzyme reaction of each NS5B using the radioactivity in the enzyme reaction of NS5B591 as a standard.

Substance	inhibition of the polymerase activity (NS5B544)	relative activity (%) (HCV polymerase)
KDLSGWFK [positions 546 to 551 of HCV polymerase NS5B with a Lys residue attached to both ends]	40 to 50%	
NS5B531: consecutive amino acid sequence 1-531 of NS5B with histidine tag		2149%
NS5B536: consecutive amino acid sequence 1-536 of NS5B with histidine tag		2107%
NS5B544: consecutive amino acid sequence 1-544 of NS5B with histidine tag GSHHDHHH		2014%
